Laboratory results published in patent publication US20230303690A1 (published 2023).

T1: LAG3 Protein, Human, Recombinant (His Tag) (Sino Biological Catalog No. 16498-H08H) (human, UniProt P18627 23-450)
T1 construct: Bought protein; also called hLAG3-His; LAG3-His; not shown: His tag
T1 sequence (looked up): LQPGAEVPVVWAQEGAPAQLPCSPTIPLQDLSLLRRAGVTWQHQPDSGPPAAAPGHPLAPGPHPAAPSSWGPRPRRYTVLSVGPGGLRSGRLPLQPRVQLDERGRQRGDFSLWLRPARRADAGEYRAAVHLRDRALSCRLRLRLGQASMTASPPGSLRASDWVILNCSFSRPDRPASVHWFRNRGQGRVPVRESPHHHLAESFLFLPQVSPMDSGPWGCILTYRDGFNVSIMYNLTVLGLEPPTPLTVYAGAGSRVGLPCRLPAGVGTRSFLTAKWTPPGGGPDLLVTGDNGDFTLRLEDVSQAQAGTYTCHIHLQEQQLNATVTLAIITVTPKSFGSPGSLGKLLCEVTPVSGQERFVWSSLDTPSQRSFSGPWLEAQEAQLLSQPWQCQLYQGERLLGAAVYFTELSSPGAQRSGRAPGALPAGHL

T2: human LAG3 expressed on cells (human, UniProt P18627 23-525)
T2 construct: whole, on cells
T2 sequence (looked up): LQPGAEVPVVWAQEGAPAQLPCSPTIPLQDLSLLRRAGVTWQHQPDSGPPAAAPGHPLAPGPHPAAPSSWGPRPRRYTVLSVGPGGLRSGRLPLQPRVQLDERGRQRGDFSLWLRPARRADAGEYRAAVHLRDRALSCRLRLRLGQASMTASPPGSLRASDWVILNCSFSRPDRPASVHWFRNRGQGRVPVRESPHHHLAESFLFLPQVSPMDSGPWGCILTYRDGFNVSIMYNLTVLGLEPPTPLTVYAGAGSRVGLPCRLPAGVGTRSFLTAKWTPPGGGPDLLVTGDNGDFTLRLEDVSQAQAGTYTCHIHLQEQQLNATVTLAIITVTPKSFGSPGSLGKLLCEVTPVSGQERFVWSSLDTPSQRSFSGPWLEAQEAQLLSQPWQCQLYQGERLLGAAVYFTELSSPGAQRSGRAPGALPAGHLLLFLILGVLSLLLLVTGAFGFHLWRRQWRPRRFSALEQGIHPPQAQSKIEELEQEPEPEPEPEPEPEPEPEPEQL

B1: sdAb No. 27 (VHH)
VHH: QVQLVESGGGLVQPGGSLRLSCAASGFTLDYYAIGWFRQAPGKEREGVSCIRSSDGSTYYADSVKGRFTISSDNTKNTVYLQMNSLKPEDTAVYYCATDRYSDCRGPYENWGQGTQVTVSS
notes: Fc of the tested form not described; also called sdAb 27; not shown: Fc part implied by anti-human Fc capture and anti-human IgG Fc detection
B2: sdAb No. 25 (VHH)
VHH: QLQLVESGGGLVQAGGSLRLSCAASGSIESFSFMGWYRQAPGKQRELVAGFTGAASLSFSTYTDAVKGRFTISRDNAKNTVYLQMNSLKPEDTAVYFCNVDPWSQSWPGRYWGQGTQVTVSS
notes: Fc of the tested form not described; also called sdAb 25; sdAb #25; not shown: Fc part implied by anti-human Fc capture and anti-human IgG Fc detection
B3: sdAb No. 17 (VHH)
VHH: QLQLVESGGGLVQPGGSLRLSCAASGLTLDGYAIGWFRQAPGKEREGLACISGSDGSTHYLDSVKGRFTISRDNGKNTMALQMNSLQFGDTAIYYCAARRGSCSGSWTYWGQGTQVTVSS
notes: Fc of the tested form not described; also called sdAb 17; not shown: Fc part implied by anti-human Fc capture and anti-human IgG1 Fc detection

Key:
[1] = target: T1, LAG3 Protein, Human, Recombinant (His …); experiment: ELISA, coated hLAG3-His
Experimental: Plates were coated with 100 µL per well of Coating Solution, and then covered, and incubated overnight (12-18 hours) at 2-8° C. The wells were aspirated and washed 1 time with >200 µL of Wash buffer per well, inverted and tapped on absorbent paper to remove excess liquid. The plates were blocked with 200 µL per well with Blocking buffer (1×PBS+4% milk) for 1 hour at room temperature, aspirated, inverted, and tapped on absorbent paper to remove excess liquid. Standards and sample dilutions were prepared in Blocking buffer. 100 µL of standards (in duplicate) and samples were pipetted into designated wells. After incubation for 1 hour at room temperature with gentle continual shaking (~500 rpm), the wells were aspirate and washed 3 times with >200 µL of Wash buffer per well, inverted and tapped on absorbent paper to remove excess liquid.
The primary antibody solution was diluted with Blocking buffer. See Table 14 for recommended primary antibody dilution. 100 µL of the primary antibody solution was added into each well and incubated for 2 hours at room temperature with gentle continual shaking (~500 rpm). The wells were aspirated and washed 3 times with >200 µL of Wash buffer per well, inverted and tapped on absorbent paper to remove excess liquid. The working solution of secondary antibody was made with Blocking buffer by diluting the secondary antibody by 2,500 times. 100 µL of secondary antibody working solution was added into each well and incubated for 30 minutes at room temperature. The wells were aspirated and washed 5 times with >200 µL of Wash buffer per well, inverted and tapped on absorbent paper to remove excess liquid. 100 µL of TMB substrate solution (Biopanda, TMB-S-004) was added to each well and incubated for 30 minutes at room temperature. 100 µL of Stop solution (Solarbio, C1058) was added to each well.

[2] = target: T2, human LAG3 expressed on cells; experiment: cell ELISA, 293T-hLAG3 cells
Experimental: Each well was treated with stimulants. The cells were then fixed and blocked with Blocking buffer. The Primary antibodies were added. The wells were washed and a HRP-conjugated secondary antibody was added. The wells were washed with 1x PBS and a solution containing TMB (Biopanda, TMB-S-004) was added. The TMB reacted with HRP to change the color thereof from colorless to blue. An acid stop solution (Solarbio, C1058) was then added to stop the reaction and change the blue color to yellow.
Materials are listed below: [0072] […] 2) Blocking buffer: 1×PBS+3% BSA (Sigma, B2064); [0074] […] [0075] 4) Secondary antibody: Goat anti-human IgG1 Fc antibody, HRP (1:2500, invitrogen, A18817). [0076]

[3] = target: T2, human LAG3 expressed on cells; experiment: cell-based or functional assay
[4] = target: T2, human LAG3 expressed on cells; experiment: FACS, 293T-hLAG3 cells
Experimental: 5) The prepared antibody samples were added to the 96-well plate according to the platemap, the cells were resuspended and incubate at 4° C. for 1 hour.
7) 3% BSA/1xPBS was used to dilute Goat polyclonal Secondary Antibody to Human IgG-Fc (DyLight® 650) to the desired concentration (1:200), in which the cells were resuspended and incubated at 4° C. for 1 hour.
9) The cells were resuspended in 200 µl of 3% BSA/1xPBS, and performed flow cytometric testing by Shsti Biotech Inc.

Binder | EC50 [1] [nM] | EC50 [2] [nM] | OD450 at 0.0045725 ug/ml [2] | OD450 at 0.0137174 ug/ml [2] | OD450 at 0.0411523 ug/ml [2] | OD450 at 0.1234568 ug/ml [2] | OD450 at 0.3703704 ug/ml [2] | OD450 at 1.111111 ug/ml [2] | OD450 at 3.333333 ug/ml [2] | OD450 at 10 ug/ml [2] | IL-2, % of BMS, at 0.005080526 ug/mL [3] [%] | IL-2, % of BMS, at 0.015241579 ug/mL [3] [%] | IL-2, % of BMS, at 0.045724737 ug/mL [3] [%] | IL-2, % of BMS, at 0.137174211 ug/mL [3] [%] | IL-2, % of BMS, at 0.411522634 ug/mL [3] [%] | IL-2, % of BMS, at 1.234567901 ug/mL [3] [%] | IL-2, % of BMS, at 3.703703704 ug/mL [3] [%] | IL-2, % of BMS, at 11.11111111 ug/mL [3] [%] | IL-2, % of BMS, at 33.33333333 ug/mL [3] [%] | IL-2, % of BMS, at 100 ug/mL [3] [%] | further results
B1 | 3.14 | 1.18 | 0.097 | 0.198 | 0.408 | 0.79 | 1.13 | 1.28 | 1.21 | 1.26 | 5.57 | 13.4 | 12.1 | 18 | 27.3 | 36.5 | 43.4 | 50 | 52.9 | 52.8 | OD450 at 0.004572 ug/ml [1]: 0.039; OD450 at 0.013717 ug/ml [1]: 0.042; OD450 at 0.041152 ug/ml [1]: 0.063; OD450 at 0.123457 ug/ml [1]: 0.331; OD450 at 0.37037 ug/ml [1]: 1.5; OD450 at 1.111111 ug/ml [1]: 1.84; OD450 at 3.333333 ug/ml [1]: 1.77; OD450 at 10 ug/ml [1]: 2.15; EC50 [4]: 1.77 nM; FACS signal at 0.061 nM [4]: 163; FACS signal at 0.1829 nM [4]: 393; FACS signal at 0.5487 nM [4]: 1010; FACS signal at 1.6461 nM [4]: 2240; FACS signal at 4.9383 nM [4]: 3570; FACS signal at 14.815 nM [4]: 4130; FACS signal at 44.445 nM [4]: 4490; FACS signal at 133.335 nM [4]: 4630
B2 |  |  |  |  |  |  |  |  |  |  | 3.24 | -0.59 | 8.03 | 2.39 | 9.2 | 25.1 | 30.6 | 34.1 | 39.8 | 53.7 | EC50 [4]: 1.48 nM; FACS signal at 0.061 nM [4]: 99.2; FACS signal at 0.1829 nM [4]: 247; FACS signal at 0.5487 nM [4]: 618; FACS signal at 1.6461 nM [4]: 1410; FACS signal at 4.9383 nM [4]: 2000; FACS signal at 14.815 nM [4]: 2280; FACS signal at 44.445 nM [4]: 2540; FACS signal at 133.335 nM [4]: 2580
B3 | 2.17 | 0.904 | 0.104 | 0.259 | 0.543 | 1.01 | 1.3 | 1.42 | 1.44 | 1.48 |  |  |  |  |  |  |  |  |  |  | 
